What was measured:
[1] = pH 10
Description: Brief descriptions of each property and the characterization of each property are stated below. • a) Hydrophilicity. Hydrophilicity relates to the strength of being dissolved in or absorbed in aqueous solutions. It denotes a preference for liquids, solutions, or surfaces with a high dipole moment, like water. Lipophilicity denotes a preference for liquids, solutions, or surfaces with a low dipole moment, such as lipid solutions. The more polar the HetSiFA, the less masking of the lipophilicity may be needed in the radiopharmaceutical via introducing cumbersome and lengthy linkers. The hydrophilicity of HetSiFAs is assessed by calculating and/or measuring the octanol/water partition coefficient log P. Log D measures the lipophilicity of ionizable compounds, where the partition is a function of the pH. The reversed-phase HPLC retention times tR can be used to qualitatively compare the polarity of HetSiFAs. • b) Hydrolytic stability. […] At different time points, the substrate is quantified by HPLC UV monitoring. […] The hydrolysis is monitored by HPLC (˜7 timepoints). […] In addition, the stability of compounds can be assessed in rat and human plasma and in microsomes. • c) Radiolabeling. […] The radiolabeling properties of synthesized HetSiFAs can be assessed using low amounts of radioactivity. […]

[2] = stability in solution / on storage (observations); type: physicochemical; conditions: prolonged storage
[3] = ex vivo biodistribution in healthy mice; conditions: for bone uptake: ex vivo biodistribution, 3 healthy Balb/c female mice, indicates Si-18F bond stability in vivo
[4] = FIG. 26
Description: Table printed on a drawing sheet, FIG. 26
The patent's description of the figure: FIG. 26 illustrates HSA binding assay results of HetSiFA compounds in accordance with an embodiment of the invention.
FIG. 26 illustrates human serum albumin (HSA) binding assay results of HetSiFA compounds in accordance with an embodiment. A standard curve can be first established using reference compounds (See, e.g., Valko, K. et al., J. Pharm. Sci. 2003, 92 (11), 2236-2248; Wurzer, A. J. et al., PSMA binding dual mode radiotracer and therapeutic. 2020, WO2020157177A1; the disclosures of which are herein incorporated by reference.) The HSA binding assay results include four HetSiFA theranostic compounds, FTX-164, FTX-165, FTX-168, and FTX-181 (structures shown in FIG. 26), and two therapeutics Lutathera and Lu-NeoB. […] Test condition of the HSA binding assay includes: Column: Chiralpak HSA (100×2.1 mm, 5 μm, Cat. No. HSA5LM-C0004), flow rate: 0.3 mL/min. Mobile phase: A—NH40Ac buffer (50 mM, pH=7), freshly prepared each day; B—isopropanol (HPLC grade); 0-3 min: isocratic 100% A, 0% B; 3-40 min: gradient to 80% A, 20% B; 40-60 min: isocratic 80% A, 20% B. Samples: 9 reference compounds, concentration 0.5 mg/mL in i-PrOH/NH4OAc (50 mM) pH=7, 50:50. […]
First reader's note: HSA % is human serum albumin binding; the structures of the compounds are drawn beside the table on the same sheet.

| Molecule | hydrolytic stability compared to phenyl-SiFA [1] | bone uptake [3] | further results |
| --- | --- | --- | --- |
| COc1ccncc1[Si](F)(C(C)(C)C)C(C)(C)C [3-(Di-tert-butylfluorosilyl)-4-methoxypyridine] | slightly lower hydrolytic stability than phenyl-SiFA |  |  |
| COc1ncccc1[Si](F)(C(C)(C)C)C(C)(C)C [5-(Di-tert-butylfluorosilyl)-6-methoxypyridine] | higher hydrolytic stability than phenyl-SiFA |  |  |
| CC(C)(C)OC(=O)NCCOCCn1nc(NCC(=O)O)cc1[Si](F)(C(C)(C)C)C(C)(C)C [PPI-24068, (1-(2-(2-((tert-butoxycarbonyl)amino)ethoxy)ethyl)-5-(di-tert-butylfluorosilyl)-1H-pyrazol-3-yl)glycine] |  |  | stability on storage and in basic medium [2]: some instability |
| Lu-DOTAGA-^18F-Pyrazole-HetSiFA-PEG12-TATE [^18F-FTX-181] |  | less bone uptake | accumulation in the liver ([3]; healthy Balb/c female mice): low; washout from non-targeted organs ([3]; healthy Balb/c female mice): washes out from non-targeted organs except for the gallbladder |
| ^18F-Pyrazole-HetSiFA-Lu-DOTAGA-TATE [^18F-FTX-165] |  | Little bone uptake |  |
| ^18F-Pyridine-HetSiFA-Lu-DOTAGA-TATE [FTX-164] |  |  | HSA % [4]: 97.78% |

From patent publication US20230355813A1, “Theranostic Silicon-Fluoride Heteroaromatic Systems and Methods Thereof” (Fuzionaire Diagnostics, Inc., priority 2022, published 2023)
